Measured values reported in the supplement of paper PMC10065799, “High-throughput profiling of sequence recognition by tyrosine kinases and SH2 domains using bacterial peptide display” (eLife, 2023).

How the values were obtained:
c-Src SH2 = assay: SH2 binding enrichment of the phosphorylated peptide, bacterial display (enrichment ratio); higher = better substrate or ligand; peptides without Tyr show the background
Grb2 SH2 = Grb2 SH2 (UniProt P62993); assay: as above
SHP2-C SH2 = assay: as above
MERTK = MERTK (UniProt Q12866); assay: phosphorylation enrichment, bacterial display (enrichment ratio); higher = better substrate or ligand; peptides without Tyr show the background
Sequence of MERTK (Q12866 whole entry, looked up): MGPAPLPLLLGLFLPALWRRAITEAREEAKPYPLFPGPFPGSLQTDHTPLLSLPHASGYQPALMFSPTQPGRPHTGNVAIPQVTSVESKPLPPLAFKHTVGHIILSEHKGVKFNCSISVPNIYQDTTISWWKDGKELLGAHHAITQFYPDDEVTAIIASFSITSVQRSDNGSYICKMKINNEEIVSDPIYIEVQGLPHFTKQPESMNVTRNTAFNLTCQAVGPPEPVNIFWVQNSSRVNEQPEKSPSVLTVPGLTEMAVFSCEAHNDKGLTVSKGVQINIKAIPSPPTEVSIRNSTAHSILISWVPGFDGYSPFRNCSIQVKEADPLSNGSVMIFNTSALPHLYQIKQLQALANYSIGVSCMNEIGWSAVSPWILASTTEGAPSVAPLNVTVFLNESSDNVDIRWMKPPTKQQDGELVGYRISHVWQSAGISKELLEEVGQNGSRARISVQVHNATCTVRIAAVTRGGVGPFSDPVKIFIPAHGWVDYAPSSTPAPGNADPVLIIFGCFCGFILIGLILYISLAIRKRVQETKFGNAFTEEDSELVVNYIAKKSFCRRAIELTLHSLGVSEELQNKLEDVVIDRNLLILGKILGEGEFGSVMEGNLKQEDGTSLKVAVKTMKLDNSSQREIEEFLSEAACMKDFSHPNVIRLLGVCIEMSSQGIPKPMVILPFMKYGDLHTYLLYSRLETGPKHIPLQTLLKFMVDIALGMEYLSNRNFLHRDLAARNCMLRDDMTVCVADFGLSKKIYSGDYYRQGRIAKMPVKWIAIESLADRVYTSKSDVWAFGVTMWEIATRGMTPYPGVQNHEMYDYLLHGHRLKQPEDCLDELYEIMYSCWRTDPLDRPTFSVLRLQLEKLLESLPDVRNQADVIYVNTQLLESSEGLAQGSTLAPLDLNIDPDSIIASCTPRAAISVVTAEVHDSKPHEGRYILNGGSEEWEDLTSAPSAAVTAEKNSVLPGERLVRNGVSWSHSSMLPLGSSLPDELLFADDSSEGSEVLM

EPHB2 = EPHB2 (UniProt P29323); assay: as above
FGFR3 = FGFR3 (UniProt P22607); assay: as above
AncSZ = assay: as above
Fyn = Fyn (UniProt P06241); assay: as above
Sequence of Fyn (P06241 whole entry, looked up): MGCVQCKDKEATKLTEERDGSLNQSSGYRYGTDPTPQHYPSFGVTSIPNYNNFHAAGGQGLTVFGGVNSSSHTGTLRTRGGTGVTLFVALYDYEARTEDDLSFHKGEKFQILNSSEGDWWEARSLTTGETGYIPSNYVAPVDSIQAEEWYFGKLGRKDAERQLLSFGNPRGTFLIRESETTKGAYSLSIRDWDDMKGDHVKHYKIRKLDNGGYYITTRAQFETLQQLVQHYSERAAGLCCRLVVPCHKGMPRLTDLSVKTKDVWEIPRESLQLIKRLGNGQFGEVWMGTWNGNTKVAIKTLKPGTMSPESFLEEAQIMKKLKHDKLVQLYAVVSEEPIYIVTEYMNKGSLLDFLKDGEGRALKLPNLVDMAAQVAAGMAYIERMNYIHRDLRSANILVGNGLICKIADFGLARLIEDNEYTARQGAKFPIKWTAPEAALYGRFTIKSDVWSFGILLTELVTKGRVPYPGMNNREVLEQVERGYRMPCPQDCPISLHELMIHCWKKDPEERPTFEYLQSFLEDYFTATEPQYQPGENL

Hck = Hck (UniProt P08631); assay: as above
Sequence of Hck (P08631 whole entry, looked up): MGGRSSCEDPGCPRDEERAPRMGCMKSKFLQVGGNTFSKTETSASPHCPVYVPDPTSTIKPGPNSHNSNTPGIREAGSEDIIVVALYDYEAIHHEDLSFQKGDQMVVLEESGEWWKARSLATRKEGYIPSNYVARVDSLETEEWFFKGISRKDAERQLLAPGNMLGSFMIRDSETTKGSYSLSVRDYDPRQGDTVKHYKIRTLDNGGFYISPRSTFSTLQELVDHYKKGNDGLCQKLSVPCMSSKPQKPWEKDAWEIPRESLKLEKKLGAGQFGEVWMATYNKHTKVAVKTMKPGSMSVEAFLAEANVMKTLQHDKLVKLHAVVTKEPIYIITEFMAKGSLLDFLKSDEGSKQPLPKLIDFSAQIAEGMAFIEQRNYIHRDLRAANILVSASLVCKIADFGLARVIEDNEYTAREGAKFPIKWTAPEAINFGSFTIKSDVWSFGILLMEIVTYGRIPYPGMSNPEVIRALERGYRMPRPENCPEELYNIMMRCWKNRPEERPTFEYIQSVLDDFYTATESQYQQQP

Fes = Fes (UniProt P07332); assay: as above
Sequence of Fes (P07332 whole entry, looked up): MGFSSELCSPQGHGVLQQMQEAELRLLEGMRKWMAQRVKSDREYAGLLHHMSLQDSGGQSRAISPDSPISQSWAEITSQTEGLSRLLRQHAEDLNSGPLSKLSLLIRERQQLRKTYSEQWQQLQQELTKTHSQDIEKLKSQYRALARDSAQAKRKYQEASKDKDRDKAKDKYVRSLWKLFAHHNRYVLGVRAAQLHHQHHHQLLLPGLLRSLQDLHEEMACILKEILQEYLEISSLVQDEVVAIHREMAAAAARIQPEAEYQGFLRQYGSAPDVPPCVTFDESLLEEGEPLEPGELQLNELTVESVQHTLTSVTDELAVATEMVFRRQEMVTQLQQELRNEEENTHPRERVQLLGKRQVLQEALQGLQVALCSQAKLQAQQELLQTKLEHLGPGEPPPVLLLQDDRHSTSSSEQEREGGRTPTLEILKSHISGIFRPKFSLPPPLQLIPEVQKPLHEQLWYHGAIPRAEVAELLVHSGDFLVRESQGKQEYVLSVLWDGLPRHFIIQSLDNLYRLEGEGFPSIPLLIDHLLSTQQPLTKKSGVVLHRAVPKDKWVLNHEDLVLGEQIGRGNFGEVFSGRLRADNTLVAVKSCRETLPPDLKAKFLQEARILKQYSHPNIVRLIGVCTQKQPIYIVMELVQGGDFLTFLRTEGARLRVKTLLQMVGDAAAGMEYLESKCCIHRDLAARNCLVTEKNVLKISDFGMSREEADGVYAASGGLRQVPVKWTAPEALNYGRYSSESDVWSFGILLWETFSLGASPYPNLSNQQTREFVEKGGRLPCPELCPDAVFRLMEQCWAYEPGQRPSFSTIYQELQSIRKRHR

EPHB1 = EPHB1 (UniProt P54762); assay: as above
c-Src = assay: as above
c-Abl (mouse) = assay: as above
Jak2 = Jak2 (UniProt O60674); assay: as above
Sequence of Jak2 (O60674 whole entry, looked up): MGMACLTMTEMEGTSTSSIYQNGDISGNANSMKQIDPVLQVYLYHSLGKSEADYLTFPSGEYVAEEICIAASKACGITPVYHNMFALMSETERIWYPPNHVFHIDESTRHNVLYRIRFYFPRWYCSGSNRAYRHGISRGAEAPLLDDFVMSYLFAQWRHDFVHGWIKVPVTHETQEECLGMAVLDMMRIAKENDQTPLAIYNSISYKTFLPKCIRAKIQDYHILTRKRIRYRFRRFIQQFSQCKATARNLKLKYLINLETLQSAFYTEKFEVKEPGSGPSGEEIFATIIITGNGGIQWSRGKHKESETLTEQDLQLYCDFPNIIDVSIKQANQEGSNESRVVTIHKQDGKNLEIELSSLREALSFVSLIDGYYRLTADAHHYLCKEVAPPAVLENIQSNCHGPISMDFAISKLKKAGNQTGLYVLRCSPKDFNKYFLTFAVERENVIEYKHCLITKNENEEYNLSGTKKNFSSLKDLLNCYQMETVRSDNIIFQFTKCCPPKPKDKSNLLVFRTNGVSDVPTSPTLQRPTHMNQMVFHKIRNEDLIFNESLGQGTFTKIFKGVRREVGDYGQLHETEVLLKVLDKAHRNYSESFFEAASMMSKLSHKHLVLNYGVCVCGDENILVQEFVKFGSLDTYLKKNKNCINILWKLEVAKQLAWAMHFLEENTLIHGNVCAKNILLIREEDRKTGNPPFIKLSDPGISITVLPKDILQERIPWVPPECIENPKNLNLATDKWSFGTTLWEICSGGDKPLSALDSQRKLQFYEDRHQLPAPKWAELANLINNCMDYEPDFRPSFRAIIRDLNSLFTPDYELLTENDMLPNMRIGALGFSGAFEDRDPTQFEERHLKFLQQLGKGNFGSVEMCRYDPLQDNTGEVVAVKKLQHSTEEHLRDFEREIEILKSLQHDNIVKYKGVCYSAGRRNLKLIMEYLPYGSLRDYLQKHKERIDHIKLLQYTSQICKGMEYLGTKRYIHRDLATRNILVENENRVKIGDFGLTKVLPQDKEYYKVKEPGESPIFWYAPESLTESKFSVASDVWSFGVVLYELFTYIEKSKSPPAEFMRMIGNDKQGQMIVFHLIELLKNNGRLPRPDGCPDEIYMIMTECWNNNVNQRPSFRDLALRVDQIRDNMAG

Fer (mouse) = assay: as above
FGFR1 = FGFR1 (UniProt P11362); assay: as above
Sequence of FGFR1 (P11362 whole entry, looked up, the tested form may be a part): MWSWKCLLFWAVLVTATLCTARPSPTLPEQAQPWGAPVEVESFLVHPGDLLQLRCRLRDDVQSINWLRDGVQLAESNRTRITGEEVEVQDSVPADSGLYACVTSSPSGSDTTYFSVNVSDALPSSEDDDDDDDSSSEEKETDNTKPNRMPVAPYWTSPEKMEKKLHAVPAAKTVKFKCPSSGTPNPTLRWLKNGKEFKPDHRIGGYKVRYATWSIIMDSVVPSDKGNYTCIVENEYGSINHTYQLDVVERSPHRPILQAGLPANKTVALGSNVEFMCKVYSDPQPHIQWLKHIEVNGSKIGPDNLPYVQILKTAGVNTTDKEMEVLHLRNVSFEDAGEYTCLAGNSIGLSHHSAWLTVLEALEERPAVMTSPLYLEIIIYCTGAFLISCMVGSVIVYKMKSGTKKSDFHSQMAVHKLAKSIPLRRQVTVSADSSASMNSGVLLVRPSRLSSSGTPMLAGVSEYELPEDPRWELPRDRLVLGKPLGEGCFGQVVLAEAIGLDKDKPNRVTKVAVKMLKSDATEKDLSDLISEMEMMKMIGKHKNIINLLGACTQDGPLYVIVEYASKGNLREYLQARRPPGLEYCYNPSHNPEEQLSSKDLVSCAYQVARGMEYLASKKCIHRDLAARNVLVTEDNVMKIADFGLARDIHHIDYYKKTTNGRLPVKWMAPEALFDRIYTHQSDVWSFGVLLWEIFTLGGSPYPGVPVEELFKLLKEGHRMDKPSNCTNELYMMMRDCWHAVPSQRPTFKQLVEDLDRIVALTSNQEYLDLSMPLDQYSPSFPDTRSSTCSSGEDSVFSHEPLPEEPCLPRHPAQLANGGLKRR
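Wherever SH2 binding enrichment of the phosphorylated peptide, bacterial display is given: peptide library displayed on the E. coli surface as eCPX fusions, selected cells deep-sequenced, score is each peptide's frequency after selection divided by its frequency in the input.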
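Wherever phosphorylation enrichment, bacterial display is given: 11-residue human phosphosite peptides and single-mutation variants displayed on the E. coli surface, counted by deep sequencing, each peptide's frequency after selection divided by its frequency in the unselected input library; frequency after pTyr selection over input frequency; kinase dosed for 20-30% of maximal phosphorylation in three min.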

Sequence of Grb2 SH2 (P62993 whole entry, looked up): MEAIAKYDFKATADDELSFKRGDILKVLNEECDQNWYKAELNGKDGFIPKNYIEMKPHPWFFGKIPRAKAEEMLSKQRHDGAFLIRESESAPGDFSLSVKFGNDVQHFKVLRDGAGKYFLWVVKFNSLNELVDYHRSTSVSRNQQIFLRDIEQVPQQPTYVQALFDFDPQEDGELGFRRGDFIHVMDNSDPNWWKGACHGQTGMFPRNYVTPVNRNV

Sequence | SH2 binding enrichment (c-Src SH2) | SH2 binding enrichment (Grb2 SH2) | SH2 binding enrichment (SHP2-C SH2) | phosphorylation enrichment (MERTK) | phosphorylation enrichment (EPHB2) | phosphorylation enrichment (FGFR3) | phosphorylation enrichment (AncSZ) | phosphorylation enrichment (Fyn) | phosphorylation enrichment (Hck) | phosphorylation enrichment (Fes) | phosphorylation enrichment (EPHB1) | phosphorylation enrichment (c-Src) | phosphorylation enrichment (c-Abl (mouse)) | phosphorylation enrichment (Jak2) | phosphorylation enrichment (Fer (mouse)) | phosphorylation enrichment (FGFR1)
VNNLVYENING [FRS2_Y306_K303N] | 2.29 | 5.57 | 1.35 | 5.31 | 4.94 | 0.576 | 1.17 | 6.01 | 7.03 | 2.21 | 11.8 | 5.42 | 0.703 | 0.571 | 11.8 | 0.57
SSSNPYSTVTV [ACTN2_Y599_M604V] | 3.35 | 0.667 | 12.3 | 0.464 | 0.359 | 0.483 | 0.432 | 0.733 | 0.82 | 0.597 | 0.342 | 1.29 | 0.567 | 0.383 | 9.71 | 0.745
LSRDVYEEDSF [RET_Y900_YF] | 0.769 | 0.778 | 0.805 | 0.819 | 0.908 | 0.89 | 1.77 | 0.573 | 0.875 | 2.02 | 1.07 | 0.828 | 1.57 | 1.7 | 0.946 | 0.813
QISRDYGVLLE [PRDX3_Y172] | 0.576 | 0.845 | 0.683 | 0.64 | 0.731 | 0.69 | 0.922 | 0.624 | 0.751 | 1.04 | 0.617 | 0.679 | 0.635 | 0.862 | 0.637 | 0.523
VIECSYTSADG [DHCR7_Y382] | 1.63 | 0.837 | 0.601 | 0.423 | 0.538 | 0.623 | 1.02 | 0.478 | 0.471 | 1.39 | 0.524 | 0.556 | 0.825 | 0.934 | 0.496 | 0.544
LNSFIYSLRNR [OR1A1_Y288_P285S] | 0.59 | 0.732 | 0.578 | 0.733 | 0.653 | 0.671 | 1.3 | 2.42 | 3.1 | 2.02 | 0.617 | 4.01 | 0.866 | 1.02 | 0.693 | 0.618
QYKGKYLAKHN [CASK_Y712_D710G] | 1.06 | 1.42 | 0.792 | 0.835 | 0.699 | 1.29 | 0.984 | 0.658 | 0.752 | 0.979 | 0.705 | 0.519 | 0.934 | 0.472 | 0.819 | 1.01
KKFVPYYDLFM [IPO5_Y530_E525K] | 2.43 | 1.6 | 1.14 | 6.5 | 4.22 | 3.24 | 0.895 | 2.06 | 2.1 | 1.05 | 4.25 | 2.32 | 0.686 | 1.07 | 1.3 | 4.49
